Source: the supplement of paper PMC7877785
± gives the uncertainty stated by the source.

Assay: self-splicing fitness, log relative to wild type (ln ratio); higher = more splicing; Tetrahymena group I intron in knt gene, E. coli kanamycin selection, DiMSum; sequences stand for … in CUCUCU…GGAGGGAAAAGUUAUCAGGCAUGCACCUGGUAGCUAGUCUUUAAACCAAUAGAUUGCAUCGGUUUAAAAGGCAAGACCGUCAAAUUGCGGGAAAGGGGUCAACAGCCGUUCAGUACCAAGUCUCAGGGGAAACUUUGAGAUGGCCUUGCAAAGGGUAUGGUAAUAAGCUGACGGACAUGGUCCUAACCACGCAGCCAAGUCCUAAGUCAACAGAUCUUCUGUUGAUAUGGAUGCAGUUCACAGACUAAAUGUCGGUCGGGGAAGAUGUAUUCUUCUCAUAAGAUAUAGUCGGACCUCUCCUUAAUGGGAGCUAGCGGAUGAAGUGAUGCAACACUGGAGCCGCUGGGAACUAAUUUGUAUGCGAAAGUAUAUUGAUUAGUUUUGGAGUACUCGUGGUCG
Procedure, shortened: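 Pooled colonies went to amplicon sequencing on an Illumina HiSeq 2500 after six replicate transformations. The plates were LB agar with 100 μg/mL carbenicillin, 50 μM IPTG and 0.2% rhamnose, with or without 25 μg/mL kanamycin, incubated overnight at 37°C or 30°C. The E. coli BL21(DE3) library had all eight P1ex-region intron nucleotides randomised, the intron placed in the knt kanamycin-resistance gene on pET-22b(+). DiMSum fitness is the error-weighted combination of replicate fold changes, kanamycin against none, normalised to wild type.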

Sequence | self-splicing fitness (ln) (30 °C) | self-splicing fitness (ln) (37 °C)
CGGUAGCAAUAUUACGUAGU | -2.59 ± 0.13 | -1.34 ± 0.16
GUGCAGCAAUAUUACGACGG |  | -2.73 ± 0.34
GCGGAGCAAUAUUACGAAAC | -3.16 ± 0.31 | -0.996 ± 0.24
GCGAAGCAAUAUUACGUCCU | -0.0766 ± 0.14 | 0.569 ± 0.17
UGCAAGCAAUAUUACGCACC | -1.89 ± 0.24 | -1.25 ± 0.32
AAUAAGCAAUAUUACGAAAC | -3.3 ± 0.39 | -2.17 ± 0.49
GAACAGCAAUAUUACGAGCC | -1.57 ± 0.14 | -1.09 ± 0.22
CACUAGCAAUAUUACGAAGA | -3.05 ± 0.24 | -2.27 ± 0.2
ACCAAGCAAUAUUACGGGUG | -1.05 ± 0.043 | -0.597 ± 0.059
AGGAAGCAAUAUUACGAGGU | -3.85 ± 0.34 | -2.97 ± 0.24
UAAUAGCAAUAUUACGGGGU | -3.73 ± 0.42 | -1.38 ± 0.45
AUUAAGCAAUAUUACGGUGG | -3.17 ± 0.28 | -1.94 ± 0.22
CCUGAGCAAUAUUACGAUAG | -1.55 ± 0.085 | -0.775 ± 0.089
UGCGAGCAAUAUUACGAAGC |  | -2.3 ± 0.42
AUUGAGCAAUAUUACGGAUU | -2.96 ± 0.23 | -1.64 ± 0.23
CGCAAGCAAUAUUACGCUCC | -2.06 ± 0.27 | -1.11 ± 0.38
AUCUAGCAAUAUUACGCCGA | -0.962 ± 0.17 | -0.198 ± 0.19
CGCAAGCAAUAUUACGUGUG | -4.31 ± 0.14 | -2.56 ± 0.11
UCUCAGCAAUAUUACGCUGG | -3.25 ± 0.2 | -2.67 ± 0.2
GCUUAGCAAUAUUACGACAC | -0.819 ± 0.21 | -0.721 ± 0.16
AGAAAGCAAUAUUACGCAGA | -2.03 ± 0.14 | -1.72 ± 0.13
CGGCAGCAAUAUUACGGCCU | -1.23 ± 0.092 | -0.41 ± 0.088
AACUAGCAAUAUUACGACAA | -0.829 ± 0.064 | -0.603 ± 0.066
CCAAAGCAAUAUUACGCUAG | -3.78 ± 0.2 | -2.4 ± 0.16
GGGGAGCAAUAUUACGUAAC | -2.06 ± 0.46 | -0.204 ± 0.39
UAUAAGCAAUAUUACGAUCG | -0.0932 ± 0.12 | -0.23 ± 0.13

Sequence | self-splicing fitness (ln) (30 °C) | self-splicing fitness (ln) (37 °C)
GCUGAGCAAUAUUACGCAGA | -2.47 ± 0.29 | -1.6 ± 0.32
GGCUAGCAAUAUUACGUACC | -0.292 ± 0.21 | 0.368 ± 0.23
CUUGAGCAAUAUUACGCGAA | -3.53 ± 0.4 | 
GGUGAGCAAUAUUACGCGGA | -2.35 ± 0.19 | -1.57 ± 0.15
CUCAAGCAAUAUUACGAGUU | -3.34 ± 0.15 | -2.52 ± 0.15
GUAUAGCAAUAUUACGAGAC | -1.38 ± 0.4 | -1.24 ± 0.47
GCAAAGCAAUAUUACGUAAG | -1.92 ± 0.1 | -0.569 ± 0.11
CAGGAGCAAUAUUACGAAAU | -2.55 ± 0.33 | 
GAGAAGCAAUAUUACGAAAA | -3.53 ± 0.4 | -2.2 ± 0.31
GAAUAGCAAUAUUACGUGAA | -1.74 ± 0.092 | -0.782 ± 0.11
UCAAAGCAAUAUUACGCUGU | -3.7 ± 0.21 | -2.82 ± 0.18
AUAGAGCAAUAUUACGCCGA | -1.81 ± 0.19 | -0.0699 ± 0.32
CGGAAGCAAUAUUACGCUCA | -1.59 ± 0.17 | 0.105 ± 0.18
CCGUAGCAAUAUUACGGUUU | -2.85 ± 0.16 | -3.05 ± 0.27
AUUCAGCAAUAUUACGUAUU | -0.474 ± 0.065 | -0.558 ± 0.092
AUCGAGCAAUAUUACGGAUC | -3.66 ± 0.41 | -1.38 ± 0.32
GGCGAGCAAUAUUACGGAAU | -2.91 ± 0.19 | -1.87 ± 0.21
GCUGAGCAAUAUUACGUAGG | -1.82 ± 0.084 | -1.24 ± 0.12
AGCAAGCAAUAUUACGAGAC | -4.19 ± 0.36 | -2.81 ± 0.21
ACUUAGCAAUAUUACGGGUU | -3.42 ± 0.19 | -3.29 ± 0.3
CUGAAGCAAUAUUACGCGCA | -3.11 ± 0.23 | -2.19 ± 0.36
AGAUAGCAAUAUUACGACCU | 0.592 ± 0.11 | 0.469 ± 0.15
UGUAAGCAAUAUUACGAACG | 0.23 ± 0.13 | 0.542 ± 0.13
AUUAAGCAAUAUUACGACUC | 0.675 ± 0.23 | -0.203 ± 0.36
ACAAAGCAAUAUUACGAUUU | -0.651 ± 0.066 | -0.399 ± 0.078
AUAUAGCAAUAUUACGGCGC | -1.38 ± 0.19 | -0.869 ± 0.26

Sequence | self-splicing fitness (ln) (30 °C) | self-splicing fitness (ln) (37 °C)
CGUGAGCAAUAUUACGCGCA | -0.962 ± 0.38 | -0.382 ± 0.27
ACCAAGCAAUAUUACGCCAA | -1.97 ± 0.18 | -2.71 ± 0.23
GAUCAGCAAUAUUACGGGCG | -0.25 ± 0.095 | -0.511 ± 0.13
CGUUAGCAAUAUUACGGUAG | -0.514 ± 0.097 | -0.104 ± 0.11
GUCCAGCAAUAUUACGAGGA | -2.98 ± 0.27 | -2.64 ± 0.3
CUAGAGCAAUAUUACGAAAA | -1.94 ± 0.44 | 
CGAGAGCAAUAUUACGGAAA | -1.65 ± 0.33 | 
ACUGAGCAAUAUUACGGGCC | -2.33 ± 0.38 | -2.51 ± 0.23
GUCCAGCAAUAUUACGUAUC | -0.611 ± 0.096 | -0.264 ± 0.11
GGCAAGCAAUAUUACGCUGG | -3.31 ± 0.23 | -2.68 ± 0.28
CCAGAGCAAUAUUACGUGAU | -3.93 ± 0.22 | -2.67 ± 0.28
AGUUAGCAAUAUUACGCUCC | -1.45 ± 0.45 | -1.02 ± 0.33
ACAAAGCAAUAUUACGAACG | -1.1 ± 0.084 | 0.144 ± 0.093
UCACAGCAAUAUUACGAAGU | -2.55 ± 0.22 | -3.34 ± 0.31
GUGCAGCAAUAUUACGCAGG | -2.59 ± 0.12 | -3.12 ± 0.18
CAGCAGCAAUAUUACGUGCU | -3.3 ± 0.13 | -1.94 ± 0.12
AAAUAGCAAUAUUACGAUAA | -1.51 ± 0.12 | -0.658 ± 0.13
GACUAGCAAUAUUACGGAGG |  | -1.68 ± 0.4
CAGCAGCAAUAUUACGAUAU | -3.29 ± 0.24 | -2.3 ± 0.19
GGUAAGCAAUAUUACGUCCU | -1.17 ± 0.2 | -0.999 ± 0.23
AACCAGCAAUAUUACGGUGU | -1.87 ± 0.061 | -2.56 ± 0.11
CUAGAGCAAUAUUACGAGCG | 0.131 ± 0.1 | 0.74 ± 0.12
UCUGAGCAAUAUUACGACGG | -1.18 ± 0.11 | -0.451 ± 0.12
UAUGAGCAAUAUUACGCUAA | -1.99 ± 0.23 | -2.39 ± 0.25
CCAUAGCAAUAUUACGCCAU | -4.18 ± 0.31 | -2.41 ± 0.25
CGAGAGCAAUAUUACGGCGA | -2.72 ± 0.3 | -1.28 ± 0.31
